Results reported in patent US20140212458A1.

Key:
[1] = target: BG505.T332N Env on Env-pseudotyped virus (HIV-1 BG505 (clade A))
[2] = target: BG505.T332N Env on Env-pseudotyped virus (HIV-1 BG505 (clade A)); assay: cell-based or functional assay

Substance | IC50, neutralization of BG505.T332N pseudovirus, TZM-bl cells [1] [µg/mL] | IC50 of neutralization of BG505.T332N Env-pseudovirus (TZM-bl) [2] [µg/mL]
VRC03 (antibody) | 0.554 | 
F105 (antibody) | > 30 | > 30
3BC315 (antibody) | 1.26 | 
F240 (antibody) | > 30 | > 30
3BNC117 (antibody) | 0.041 | 
12A12 (antibody) | 0.05 | 
b6 (antibody) | > 30 | > 30
HJ16 (antibody) | 3.2 | 
CH01 (antibody) | 0.301 | 
PGT136 (antibody) | 25.7 | 26.6
1NC9 (antibody) | 0.251 | 
PGT123 (antibody) | 0.028 | 
PGT127 (antibody) | 0.037 | 
8ANC195 (antibody) | 0.139 | 
CH103 (antibody) | 2.57 | 
A32 (antibody) | > 30 | > 30
PGT145 (antibody) | 0.083 | 
PG16 (antibody) | 0.008 | 
PGT122 (antibody) | 0.112 | 
VRC06b (antibody) | 1.11 | 

Substance | IC50, neutralization of BG505.T332N pseudovirus, TZM-bl cells [1] [µg/mL] | IC50 of neutralization of BG505.T332N Env-pseudovirus (TZM-bl) [2] [µg/mL]
3BC176 (antibody) | 0.175 | 
PGT130 (antibody) | 0.027 | 
VRC01 (antibody) | 0.07 | 
X5 (antibody) | > 30 | > 30
2G12 (antibody) | 0.79 | 
b12 (antibody) | > 30 | 30
PGT128 (antibody) | 0.011 | 
PGT126 (antibody) | 0.01 | 
CH31 (antibody) | 0.014 | 
F91 (antibody) | > 30 | > 30
45-46 (antibody) | 0.033 | 
PGT121 (antibody) | 0.015 | 
PGT135 (antibody) | 2.23 | 
VRC06 (antibody) | 3.32 | 
PGV04 (antibody) | 0.066 | 
3BNC60 (antibody) | 0.034 | 
CH106 (antibody) | 2.7 | 
7B2 (antibody) | > 30 | > 30
PGT125 (antibody) | 0.007 | 
